T1: OmpR (Escherichia coli, UniProt P0AA16)
T1 chain: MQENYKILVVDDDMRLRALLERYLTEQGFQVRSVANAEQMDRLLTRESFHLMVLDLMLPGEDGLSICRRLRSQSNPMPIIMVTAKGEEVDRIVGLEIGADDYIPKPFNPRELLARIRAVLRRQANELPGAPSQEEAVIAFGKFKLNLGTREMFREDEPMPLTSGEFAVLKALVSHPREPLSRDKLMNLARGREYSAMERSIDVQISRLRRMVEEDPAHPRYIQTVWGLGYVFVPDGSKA


What was measured:
[1] = biological target: OmpR~P (Escherichia coli) (UniProt P0AA16); assay: FRET; conditions: cited from earlier work
OmpR (Escherichia coli) = OmpR (Escherichia coli) (UniProt P0AA16); assay: FRET; conditions: cited from earlier work
OmpR = biological target: T1, OmpR; assay: fluorescence anisotropy

Sequence of EnvZ-GFP (P0AEJ4 whole entry): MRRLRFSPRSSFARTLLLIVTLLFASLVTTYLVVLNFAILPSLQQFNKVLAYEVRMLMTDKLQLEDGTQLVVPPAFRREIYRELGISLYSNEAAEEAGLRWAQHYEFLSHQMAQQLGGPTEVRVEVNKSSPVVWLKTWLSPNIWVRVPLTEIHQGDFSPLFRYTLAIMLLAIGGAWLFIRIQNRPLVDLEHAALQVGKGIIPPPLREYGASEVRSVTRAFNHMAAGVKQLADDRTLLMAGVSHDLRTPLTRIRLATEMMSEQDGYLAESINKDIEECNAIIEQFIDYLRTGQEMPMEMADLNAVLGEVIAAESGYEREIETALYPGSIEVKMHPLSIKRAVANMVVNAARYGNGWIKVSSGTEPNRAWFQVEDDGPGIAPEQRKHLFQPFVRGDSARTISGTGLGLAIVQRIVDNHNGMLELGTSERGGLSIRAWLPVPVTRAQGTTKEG

| Molecule | Kd [1] [nM] | Kd (OmpR (Escherichia coli)) [nM] | Kd (OmpR) [nM] |
| --- | --- | --- | --- |
| EnvZ-GFP (from UniProt P0AEJ4) | 1600 | 500 |  |
| EnvZc cytoplasmic domain (protein) FNHMAAGVKQLADDRTLLMAGVSHDLRTPLTRIRLATEMMSEQDGYLAESINKDIEECNAIIEQFIDYLRTGQ |  |  | 425 |
| EnvZc cytoplasmic domain (protein, ompC DNA (C1-C2-C3)) FNHMAAGVKQLADDRTLLMAGVSHDLRTPLTRIRLATEMMSEQDGYLAESINKDIEECNAIIEQFIDYLRTGQ |  |  | 385 |
